The source of these data is patent US20130251728A1.

The target of experiment [1] is mouse GCGR (full-length, on HEK293 reporter cells) (mouse) (UniProt Q61606). Kind of experiment: cell-based or functional assay.
Experiment [2] addresses rat GCGR (full-length, on transiently transfected HEK293 reporter cells) (rat) (UniProt P30082). Kind of experiment: cell-based or functional assay.

mouse GCGR (full-length, on HEK293 reporter cells) (mouse), sequence (Q61606 27-485 limits assumed): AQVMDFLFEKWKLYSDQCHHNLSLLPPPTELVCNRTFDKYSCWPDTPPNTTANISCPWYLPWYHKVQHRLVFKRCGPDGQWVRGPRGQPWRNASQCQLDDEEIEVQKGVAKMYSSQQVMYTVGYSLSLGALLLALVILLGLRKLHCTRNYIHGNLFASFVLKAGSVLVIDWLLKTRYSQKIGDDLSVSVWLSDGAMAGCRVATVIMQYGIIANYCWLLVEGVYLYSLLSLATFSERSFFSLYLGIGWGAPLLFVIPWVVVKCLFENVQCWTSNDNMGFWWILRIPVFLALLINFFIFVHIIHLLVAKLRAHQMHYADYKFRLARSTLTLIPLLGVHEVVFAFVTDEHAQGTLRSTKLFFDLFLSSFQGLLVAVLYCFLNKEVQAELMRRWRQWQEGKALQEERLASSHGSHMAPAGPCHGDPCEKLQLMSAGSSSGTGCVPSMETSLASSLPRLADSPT
rat GCGR (full-length, on transiently transfected HEK293 reporter cells) (rat), sequence (P30082 27-485 limits assumed): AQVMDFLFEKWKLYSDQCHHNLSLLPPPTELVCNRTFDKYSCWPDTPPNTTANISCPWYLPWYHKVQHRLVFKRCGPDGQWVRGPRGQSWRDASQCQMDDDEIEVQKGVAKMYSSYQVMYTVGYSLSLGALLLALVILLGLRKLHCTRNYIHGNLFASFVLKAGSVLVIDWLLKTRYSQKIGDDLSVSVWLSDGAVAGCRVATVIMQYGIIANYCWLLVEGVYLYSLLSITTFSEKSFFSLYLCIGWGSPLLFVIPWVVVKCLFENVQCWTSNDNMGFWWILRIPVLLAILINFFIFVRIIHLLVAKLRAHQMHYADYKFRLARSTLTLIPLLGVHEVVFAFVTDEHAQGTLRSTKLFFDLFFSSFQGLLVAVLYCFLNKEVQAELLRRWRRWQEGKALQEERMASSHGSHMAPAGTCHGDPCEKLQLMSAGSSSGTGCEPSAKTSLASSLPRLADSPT

On to “glucagon (GCG) (from UniProt P01275 53-81) (ligand)”, for which the EC50, luciferase activity in HEK293/mGCGR reporter cells in experiment [1] came to 0.083 nM. In addition, the EC50, luciferase activity in HEK293 reporter cells transfected with rat GCGR in experiment [2] came to 0.252 nM.
